Reference: the Immune Epitope Database (IEDB)
One block for each sequence: values may come before it.

How the values were obtained:
HLA-A*01:01 = assay: IEDB peptide-MHC binding, purified MHC/direct/fluorescence; filed as Kd, often an IC50 or EC50 that approximates it; ≥ and ≤ were set here for values at or beyond the usual limits of such assays
HLA-A*02:01 [1] = assay: as above; details: source organism: Giardia lamblia ATCC 50803
HLA-A*03:01 = assay: as above; details: source organism: Giardia lamblia ATCC 50803
HLA-A*11:01 [2] = assay: as above; details: source organism: Giardia lamblia ATCC 50803
HLA-A*26:01 = assay: as above
HLA-A*30:01 = assay: as above; details: source organism: Giardia lamblia ATCC 50803
HLA-A*31:01 = assay: as above
HLA-A*69:01 = assay: as above
HLA-B*07:02 = assay: as above
HLA-B*08:01 = assay: as above
HLA-B*15:01 [3] = assay: as above; details: source organism: Giardia lamblia ATCC 50803
HLA-B*27:05 = assay: as above; details: source organism: Giardia lamblia ATCC 50803
HLA-B*40:01 = assay: as above; details: source organism: Giardia lamblia ATCC 50803
HLA-B*44:02 = assay: as above; details: source organism: Giardia lamblia ATCC 50803
HLA-B*58:01 = assay: as above
HLA-B*73:01 = assay: as above; details: source organism: Giardia lamblia ATCC 50803
HLA-B*51:01 = assay: as above; details: source organism: Homo sapiens
HLA-C*05:01 = assay: as above; details: source organism: Homo sapiens
HLA-C*07:02 = assay: as above; details: source organism: Homo sapiens
HLA-A*32:07 = assay: IEDB peptide-MHC binding, purified MHC/competitive/fluorescence; filed as Kd, often an IC50 or EC50 that approximates it; ≥ and ≤ were set here for values at or beyond the usual limits of such assays; details: source organism: Homo sapiens
HLA-A*32:15 = assay: as above; details: source organism: Homo sapiens
HLA-A*68:23 = assay: as above; details: source organism: Homo sapiens
HLA-B*15:42 = assay: as above; details: source organism: Homo sapiens
HLA-B*40:13 = assay: as above; details: source organism: Homo sapiens
HLA-B*45:06 = assay: as above; details: source organism: Homo sapiens
HLA-B*83:01 = assay: as above; details: source organism: Homo sapiens
HLA-C*06:02 [4] = assay: as above; details: source organism: Homo sapiens
HLA-A*23:01 = assay: IEDB peptide-MHC binding, purified MHC/direct/fluorescence; filed as Kd, often an IC50 or EC50 that approximates it; ≥ and ≤ were set here for values at or beyond the usual limits of such assays; details: source organism: Brucella abortus 2308
HLA-A*24:03 = assay: as above
HLA-B*08:03 = assay: as above; details: source organism: Brucella suis 1330
HLA-B*15:09 = assay: as above; details: source organism: Brucella suis 1330
HLA-B*39:01 = assay: as above; details: source organism: Brucella suis 1330
HLA-B*57:01 = assay: as above; details: source organism: Brucella abortus 2308
HLA-C*06:02 [5] = assay: as above; details: source organism: Brucella abortus S19
HLA-C*14:02 = assay: as above; details: source organism: Brucella abortus S19
HLA-C*15:02 = assay: as above; details: source organism: Brucella abortus S19
HLA-A*02:01 [6] = assay: IEDB peptide-MHC binding, purified MHC/competitive/fluorescence; filed as Kd, often an IC50 or EC50 that approximates it; ≥ and ≤ were set here for values at or beyond the usual limits of such assays; details: source organism: Brucella abortus S19
HLA-A*02:03 = assay: as above; details: source organism: Brucella abortus S19
HLA-A*02:06 = assay: as above; details: source organism: Brucella abortus S19
HLA-A*11:01 [7] = assay: as above; details: source organism: Brucella abortus S19
HLA-A*26:02 = assay: as above; details: source organism: Brucella abortus S19
HLA-A*68:02 = assay: as above; details: source organism: Brucella abortus S19
HLA-B*15:01 [8] = assay: as above; details: source organism: Brucella abortus S19
HLA-B*15:17 = assay: as above; details: source organism: Brucella abortus S19
HLA-B*18:01 = assay: as above; details: source organism: Brucella abortus S19
HLA-C*04:01 = assay: IEDB peptide-MHC binding, purified MHC/direct/fluorescence; filed as Kd, often an IC50 or EC50 that approximates it; ≥ and ≤ were set here for values at or beyond the usual limits of such assays; details: source organism: Nostoc punctiforme PCC 73102
[9] = source organism: Giardia lamblia ATCC 50803
[10] = source organism: Brucella abortus 2308
[11] = source organism: Brucella suis 1330

Sequence: IRNLVKRYK
Kd (HLA-A*01:01; [9]): ≥ 20 µM
Kd (HLA-A*02:01 [1]): ≥ 20 µM
Kd (HLA-A*03:01): ≥ 20 µM
Kd (HLA-A*11:01 [2]): ≥ 20 µM
Kd (HLA-A*26:01; [9]): ≥ 20 µM
Kd (HLA-A*30:01): 0.0508 µM
Kd (HLA-A*31:01; [9]): ≥ 20 µM
Kd (HLA-A*69:01; [9]): ≥ 20 µM
Kd (HLA-B*07:02; [9]): ≥ 20 µM
Kd (HLA-B*08:01; [9]): ≥ 20 µM
Kd (HLA-B*15:01 [3]): ≥ 20 µM
Kd (HLA-B*27:05): 1.21 µM
Kd (HLA-B*40:01): ≥ 20 µM
Kd (HLA-B*44:02): ≥ 20 µM
Kd (HLA-B*58:01; [9]): ≥ 20 µM
Kd (HLA-B*73:01): 3.5 µM

Kd (HLA-B*51:01): 0.168 µM
Kd (HLA-C*05:01): ≥ 20 µM
Kd (HLA-C*07:02): 3.31 µM
Kd (HLA-A*32:07): 0.0047 µM
Kd (HLA-A*32:15): 0.0202 µM
Kd (HLA-A*68:23): 0.0065 µM
Kd (HLA-B*15:42): ≥ 5 µM
Kd (HLA-B*40:13): 0.213 µM
Kd (HLA-B*45:06): ≥ 5 µM
Kd (HLA-B*83:01): 3.6 µM
Kd (HLA-C*06:02 [4]): 1.78 µM
Sequence: MAMGILHTI

Sequence: YWMGGTTYF
Kd (HLA-A*01:01; [10]): ≥ 20 µM
Kd (HLA-A*23:01): 0.0535 µM
Kd (HLA-A*24:03; [10]): ≤ 0.001 µM
Kd (HLA-A*26:01; [11]): ≥ 20 µM
Kd (HLA-A*31:01; [10]): ≥ 20 µM
Kd (HLA-A*69:01; [10]): ≥ 20 µM
Kd (HLA-B*07:02; [10]): ≥ 20 µM
Kd (HLA-B*08:01; [11]): ≥ 20 µM
Kd (HLA-B*08:03): ≥ 20 µM
Kd (HLA-B*15:09): ≥ 20 µM
Kd (HLA-B*39:01): ≥ 20 µM
Kd (HLA-B*57:01): ≥ 20 µM
Kd (HLA-B*58:01; [10]): ≥ 20 µM
Kd (HLA-C*06:02 [5]): ≥ 20 µM
Kd (HLA-C*14:02): ≤ 0.001 µM
Kd (HLA-C*15:02): ≥ 20 µM
Kd (HLA-A*02:01 [6]): 1.12 µM
Kd (HLA-A*02:03): 4.23 µM
Kd (HLA-A*02:06): 0.797 µM
Kd (HLA-A*11:01 [7]): 2.07 µM
Kd (HLA-A*26:02): ≥ 20 µM
Kd (HLA-A*68:02): ≥ 20 µM
Kd (HLA-B*15:01 [8]): 1.04 µM
Kd (HLA-B*15:17): 1.02 µM
Kd (HLA-B*18:01): ≥ 20 µM

Sequence: YWPTEGYEF
Kd (HLA-A*24:03; source organism: Escherichia coli O157:H7): ≤ 0.001 µM
Kd (HLA-C*04:01): 0.222 µM
